Test results reported in PMC5059718, “Leukocyte trafficking-associated vascular adhesion protein 1 is expressed and functionally active in atherosclerotic plaques” (Scientific Reports, 2016).
Bridge positions count the residues as written; N and C are the ends. Peptide text beside a SMILES is read from it. * marks the point of attachment. DOTA = O=C(O)CN1CCN(CC(=O)O)CCN(CC(=O)*)CCN(CC(=O)O)CC1; AEEA = NCCOCCOCC(=O)O

How the values were obtained:
VAP-1 [1] = conditions: mouse VAP-1; cited from earlier work
Text: (§1) The adhesive function of VAP-1 can be inhibited by […]. Inhibiting VAP-1 reduces the migration of lymphocytes, granulocytes, and monocytes into inflamed tissues; it also reduces pathological angiogenesis in many animal models by abrogating monocyte/macrophage infiltration.

[2] = test system: broad panel of receptors and enzymes, including monoamine oxidases A and B; conditions: cited from earlier work
Text: as §1

[3] = Body weight and plasma lipids after 4-week VAP-1 inhibitor treatment; type: in vivo, mouse (LDLR−/−ApoB100/100); conditions: mean ± SD
Protocol: (§2) The second phase examined the role of VAP-1 in atherosclerotic plaques. Twenty-five LDLR^−/−ApoB^100/100 mice were treated with a VAP-1 inhibitor (LJP1586, Z-3-fluoro-2-(4-methoxybenzyl)allylamine hydrochloride; a kind gift from M. Linnik, La Jolla Pharmaceuticals, San Diego, CA, USA), or with saline. At the age of 2 months, mice were shifted to a high-fat diet for 2 months prior to the start of 4-week treatment, during which they were on normal chow. All mice were housed in an animal facility under standard conditions (12 h light/dark cycle) and allowed access to food and water ad libitum.
During the 4 week treatment period, LDLR^−/−ApoB^100/100 mice received thrice-weekly intraperitoneal (i.p.) injections of a small molecular VAP-1 inhibitor, LJP1586 (Z-3-fluoro-2-(4-methoxybenzyl)allylamine hydrochloride; 0.5 mg/mL diluted in PBS; a kind gift from M. Linnik, La Jolla Pharmaceuticals, San Diego, CA, USA) at a dose of 5 mg/kg. Mice injected with the physiological saline alone (200 μL) served as negative controls. After treatment, all mice were sacrificed and the hearts were collected, formalin-fixed, and paraffin-embedded. Tissues were then cut transversely into 5 μm sections at the level of the coronary ostia. The areas of intima and media were outlined in sections stained with Movat’s pentachrome, and the intima-to-media ratio for each mouse was determined with ImageJ as described previously. Adjacent sections were stained with an anti-mouse Mac-3 antibody to detect activated macrophages in the intima as described above. […]
Total cholesterol (CHOD-PAP 1489232 kit; Roche Diagnostics GmbH, Mannheim, Germany), choline-containing phospholipids (990–54009; Wako Chemicals GmbH, Neuss, Germany and/or Diagnostic Systems, Holzheim, Germany), and triglycerides (GPO-PAP 1488872 kit; Roche Diagnostics GmbH) were measured using fully enzymatic methods.

VAP-1 [4] = target: T1, VAP-1 (Mus musculus, UniProt O70423); experiment: 4-week VAP-1 inhibitor treatment: plaque macrophages and intima-to-media ratio; type: in vivo, mouse (LDLR−/−ApoB100/100)
T1 construct: VAP-1 was expressed on endothelial cells lining inflamed atherosclerotic lesions; from tissue; host or cells: living mice (LDLR-/-ApoB100/100, Jackson strain #003000; C57BL/6N controls); aorta, atherosclerotic plaque endothelium, adipocytes
T1 sequence (O70423 1-765): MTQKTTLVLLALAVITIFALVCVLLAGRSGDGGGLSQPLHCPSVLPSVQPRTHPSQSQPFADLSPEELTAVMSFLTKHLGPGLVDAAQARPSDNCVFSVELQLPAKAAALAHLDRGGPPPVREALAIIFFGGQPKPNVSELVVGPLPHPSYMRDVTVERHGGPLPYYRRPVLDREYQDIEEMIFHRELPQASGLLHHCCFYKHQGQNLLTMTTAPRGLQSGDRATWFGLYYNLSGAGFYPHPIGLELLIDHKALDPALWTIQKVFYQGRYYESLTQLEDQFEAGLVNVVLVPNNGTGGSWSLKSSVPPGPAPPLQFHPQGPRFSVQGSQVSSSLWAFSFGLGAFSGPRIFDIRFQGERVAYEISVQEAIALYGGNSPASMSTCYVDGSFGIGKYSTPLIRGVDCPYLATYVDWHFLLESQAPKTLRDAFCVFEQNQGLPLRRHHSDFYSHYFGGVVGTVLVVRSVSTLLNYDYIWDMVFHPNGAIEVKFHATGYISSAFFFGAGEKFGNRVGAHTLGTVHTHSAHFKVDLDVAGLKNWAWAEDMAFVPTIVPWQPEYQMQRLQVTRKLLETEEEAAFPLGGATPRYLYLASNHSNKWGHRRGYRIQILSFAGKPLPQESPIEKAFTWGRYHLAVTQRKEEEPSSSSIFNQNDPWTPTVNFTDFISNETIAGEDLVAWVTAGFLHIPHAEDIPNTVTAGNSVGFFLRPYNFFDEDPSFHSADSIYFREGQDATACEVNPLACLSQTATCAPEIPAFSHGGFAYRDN
Protocol: as §2
During the 4 week treatment period, LDLR^−/−ApoB^100/100 mice received thrice-weekly intraperitoneal (i.p.) injections of a small molecular VAP-1 inhibitor, LJP1586 (Z-3-fluoro-2-(4-methoxybenzyl)allylamine hydrochloride; 0.5 mg/mL diluted in PBS; a kind gift from M. Linnik, La Jolla Pharmaceuticals, San Diego, CA, USA) at a dose of 5 mg/kg. Mice injected with the physiological saline alone (200 μL) served as negative controls. After treatment, all mice were sacrificed and the hearts were collected, formalin-fixed, and paraffin-embedded. Tissues were then cut transversely into 5 μm sections at the level of the coronary ostia. The areas of intima and media were outlined in sections stained with Movat’s pentachrome, and the intima-to-media ratio for each mouse was determined with ImageJ as described previously. Adjacent sections were stained with an anti-mouse Mac-3 antibody to detect activated macrophages in the intima as described above. Sections of aortic ostium were used to determine the area of plaque occupied by macrophages in each mouse because the ostium is easily located due to the presence of valves; it is therefore the most reliable place to compare plaque deposition in individual mice.

VAP-1 [5] = target: T1, VAP-1; set-up: species or system mouse (LDLR−/−ApoB100/100; C57BL/6N); conditions: in vivo
Protocol: Mice (n = 5) then received an injection of [^68Ga]DOTA-Siglec-9 (22 ± 9 MBq) and were then subjected to subsequent ex vivo biodistribution and autoradiography analyses.
The distribution of [^68Ga]DOTA-Siglec-9 in the aorta was examined in more detail using autoradiography, as described previously. Briefly, after gamma counting, excised aortas were frozen in isopentane, and sequential longitudinal cryosections (20 and 8 μm) were cut using a cryomicrotome at −15 °C. Sections were then thaw-mounted onto microscope slides. […]
The 20 μm sections were stained with hematoxylin and eosin and scanned with a Pannoramic 250 Flash slide scanner (3DHISTECH Ltd.), and morphology was examined using Pannoramic Viewer 1.15 software (3DHISTECH Ltd.). After carefully superimposing the autoradiographs and hematoxylin-eosin staining images, the concentration of ^68Ga-radioactivity was measured in the following ROI: 1) plaques (excluding media); 2) normal vessel wall (no lesion formation); and 3) adventitia (mainly adipose tissue around the aorta). The results were expressed as count densities (photostimulated luminescence per square millimeter; PSL/mm^2) using Tina 2.1 software (Raytest Isotopemessgeräte GmbH, Straubenhardt, Germany). […] In total, […] (417 in plaques, 478 in normal vessel walls, and 347 in adventitia) were analyzed in 27 atherosclerotic and 20 control mice. […]

VAP-1 [6] = test system: T2, VAP-1; experiment: in vivo; set-up: species or system mouse (LDLR−/−ApoB100/100; C57BL/6N); conditions: total radioactivity
T2 construct: VAP-1 was expressed on endothelial cells lining inflamed atherosclerotic lesions; from tissue; host or cells: living mice (LDLR-/-ApoB100/100, Jackson strain #003000; C57BL/6N controls); aorta, atherosclerotic plaque endothelium, adipocytes
Protocol: (§3) Mice (LDLR^−/−ApoB^100/100, n = 22; C57BL/6N, n = 20) under isoflurane anesthesia were i.v. injected with [^68Ga]DOTA-Siglec-9 (19 ± 5 MBq). […] The thoracic aorta was excised and rinsed in saline to remove blood. Aorta, blood, heart, and femoral muscle were weighed, and radioactivity was measured in a gamma counter (Triathler 3″, Hidex, Turku, Finland). Hearts were preserved in formalin for further characterization of plaques in the aortic root. The ex vivo biodistribution results were expressed as a percentage of the injected radioactivity dose per gram of tissue (%IA/g). The radioactivity remaining in the tail was compensated for. […] Mice (n = 5) then received an injection of [^68Ga]DOTA-Siglec-9 (22 ± 9 MBq) and were then subjected to subsequent ex vivo biodistribution and autoradiography analyses.

VAP-1 [7] = target: T1, VAP-1; experiment: in vivo; set-up: species or system mouse (LDLR−/−ApoB100/100; C57BL/6N); conditions: mouse
Protocol: as §3

SMILES	IC50 (VAP-1 [1])	selectivity for VAP-1 [2]	Body weight ([3]; LJP1586-treated LDLR−/−ApoB100/100 mice (n = 15), P = 0.065 vs saline)	Weight, female ([3]; LJP1586 group, female LDLR−/−ApoB100/100 mice (n = 8))	Weight, male ([3]; LJP1586 group, male LDLR−/−ApoB100/100 mice (n = 7))	reduction of Mac-3-positive macrophages in atherosclerotic plaques compared with the saline group (VAP-1 [4]; LJP1586 5 mg/kg i.p. thrice weekly for 4 weeks, P < 0.0001)	intima-media ratio (plaque size) (VAP-1 [4]; LJP1586 5 mg/kg i.p. thrice weekly for 4 weeks, n = 15, aortic ostium, mean ± SD (saline 1.5 ± 0.6; P = 0.15))	areal percentage of the aortic plaque occupied by Mac-3-positive macrophages (VAP-1 [4]; LJP1586 5 mg/kg i.p. thrice weekly for 4 weeks, n = 15, aortic ostium, mean ± SD (saline 15% ± 5.1%))	effect on plaque size, as determined by the intima-media ratio (VAP-1 [4]; LJP1586 for 4 weeks vs saline)	Plaque-to-adventitia ratio (autoradiography) (VAP-1 [5])	Plaque-to-wall ratio (autoradiography) (VAP-1 [5])	tissue uptake at 25 min (VAP-1 [6]; C57BL/6N, mouse, iv, uptake by the whole aorta)	tissue uptake at 25 min (VAP-1 [6]; LDLR−/−ApoB100/100, mouse, iv, radioactivity concentration in the blood)	tissue uptake at 25 min (VAP-1 [6]; LDLR−/−ApoB100/100, mouse, iv, uptake by the whole aorta)	tissue uptake at 25 min (VAP-1 [6]; LDLR−/−ApoB100/100, mouse, radioactivity concentration in the blood with competition)	tissue uptake at 25 min (VAP-1 [6]; LDLR−/−ApoB100/100, mouse, uptake by the whole aorta with competition)	aorta-to-blood ratio on prolonging the accumulation time-point to 90 min (VAP-1 [7])	aorta-to-muscle ratio (VAP-1 [7])	aorta-to-muscle ratio with competition (VAP-1 [7])
COc1ccc(C/C(=C/F)CN)cc1.Cl [LJP1586, Z-3-fluoro-2-(4-methoxybenzyl)allylamine hydrochloride]	4 nM	has been confirmed	28 ± 4.5 g	25 ± 1.9 g	33 ± 1.7 g	46%	1.9 ± 0.8	8.2% ± 3.5%	no effect										
CC(C)C[C@@H]1NC(=O)CNC(=O)[C@H](CCCNC(=N)N)NC(=O)[C@H](Cc2c[nH]c3ccccc23)NC(=O)[C@H](CO)NC(=O)[C@H](CC(C)C)NC(=O)[C@H](CO)NC(=O)[C@H](CC(C)C)NC(=O)[C@H](CCCNC(=N)N)NC(=O)[C@H](C)NC(=O)[C@@H](NC(=O)COCCOCCNC(=O)CN2CCN(CC(=O)O)CCN(CC(=O)O)CCN(CC(=O)O)CC2)CSSC[C@@H](C(=O)N2CCC[C@H]2C(=O)N[C@@H](CO)C(=O)N[C@@H](CCCCN)C(=O)O)NC(=O)[C@H](CC(C)C)NC(=O)[C@H]([C@@H](C)O)NC1=O [[^68Ga]DOTA-Siglec-9, metal not drawn] ({DOTA-AEEA}-CARLSLSWRGLTLCPSK-OH; disulfide 1-14)										1.8 ± 0.35 P < 0.0001	2.1 ± 0.43 P < 0.0001	0.46 ± 0.1 %ID/g	3 ± 1.3 %ID/g	0.83 ± 0.33 %ID/g	2.6 ± 0.9 %ID/g	0.48 ± 0.066 %ID/g	did not improve	1.7 ± 0.59	1.1 ± 0.38
